Source: patent US20260191907A1

How the values were obtained:
[1] = molecular target: Recombinant FGFR4 (G&P Biosciences) (human) (UniProt P22455); assay: SPR (BIAcore T200), single cycle kinetics, FGFR4 amine-immobilised (12'000 RU), negative control nanobody as analyte, heterogeneous ligand model, component 2 (KD2)
[2] = molecular target: Recombinant FGFR4 (G&P Biosciences) (human) (UniProt P22455); assay: SPR (BIAcore T200), single cycle kinetics, FGFR4 amine-immobilised (12'000 RU), negative control nanobody as analyte, heterogeneous ligand model, component 1 (koff1)
[3] = molecular target: Recombinant FGFR4 (G&P Biosciences) (human) (UniProt P22455); assay: SPR (BIAcore T200), single cycle kinetics, FGFR4 amine-immobilised (12'000 RU), negative control nanobody as analyte, heterogeneous ligand model, component 1 (KD1)
[4] = molecular target: Recombinant FGFR4 (G&P Biosciences) (human) (UniProt P22455); assay: SPR (BIAcore T200), single cycle kinetics, FGFR4 amine-immobilised (12'000 RU), negative control nanobody as analyte, heterogeneous ligand model, component 2 (kon2)
[5] = molecular target: Recombinant FGFR4 (G&P Biosciences) (human) (UniProt P22455); assay: SPR (BIAcore T200), single cycle kinetics, FGFR4 amine-immobilised (12'000 RU), negative control nanobody as analyte, heterogeneous ligand model, component 1 (kon1)
[6] = molecular target: FGFR4 expressed on the surface of RMS cells (Rh4-FR4 wt, Rh30) (human) (UniProt P22455); assay: flow cytometry, recombinant nanobody at 30 µg/ml on Rh4-FR4 wt cells, anti-6xHis-FITC detection; equals the background of the secondary antibody alone
Chain of FGFR4 expressed on the surface of RMS cells (Rh4-FR4 wt, Rh30) (human) (P22455 22-802 limits assumed): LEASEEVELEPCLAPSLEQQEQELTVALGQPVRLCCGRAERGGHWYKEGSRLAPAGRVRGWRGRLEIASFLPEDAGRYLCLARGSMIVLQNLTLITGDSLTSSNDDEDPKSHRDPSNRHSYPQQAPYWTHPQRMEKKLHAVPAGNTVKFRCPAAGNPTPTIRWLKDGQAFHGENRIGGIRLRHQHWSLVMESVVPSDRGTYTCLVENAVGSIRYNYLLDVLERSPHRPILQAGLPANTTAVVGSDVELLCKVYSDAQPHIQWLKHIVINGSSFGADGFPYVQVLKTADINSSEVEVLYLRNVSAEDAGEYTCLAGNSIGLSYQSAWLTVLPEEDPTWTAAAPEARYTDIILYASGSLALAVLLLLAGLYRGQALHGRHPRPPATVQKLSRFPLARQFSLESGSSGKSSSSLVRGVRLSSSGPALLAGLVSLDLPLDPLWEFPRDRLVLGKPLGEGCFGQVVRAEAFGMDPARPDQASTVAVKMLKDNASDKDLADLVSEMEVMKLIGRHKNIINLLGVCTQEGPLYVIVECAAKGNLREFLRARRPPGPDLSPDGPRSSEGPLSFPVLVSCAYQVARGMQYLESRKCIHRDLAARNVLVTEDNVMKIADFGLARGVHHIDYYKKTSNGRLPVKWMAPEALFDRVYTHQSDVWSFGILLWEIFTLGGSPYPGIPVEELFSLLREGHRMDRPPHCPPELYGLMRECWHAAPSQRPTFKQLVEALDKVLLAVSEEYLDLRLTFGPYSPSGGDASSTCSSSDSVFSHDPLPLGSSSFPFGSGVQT

[7] = molecular target: Recombinant FGFR4 (G&P Biosciences) (human) (UniProt P22455); assay: SPR (BIAcore T200), single cycle kinetics, FGFR4 amine-immobilised (12'000 RU), negative control nanobody as analyte, heterogeneous ligand model, component 2 (koff2)

Chain of Recombinant FGFR4 (G&P Biosciences) (human) (P22455 22-369 limits assumed): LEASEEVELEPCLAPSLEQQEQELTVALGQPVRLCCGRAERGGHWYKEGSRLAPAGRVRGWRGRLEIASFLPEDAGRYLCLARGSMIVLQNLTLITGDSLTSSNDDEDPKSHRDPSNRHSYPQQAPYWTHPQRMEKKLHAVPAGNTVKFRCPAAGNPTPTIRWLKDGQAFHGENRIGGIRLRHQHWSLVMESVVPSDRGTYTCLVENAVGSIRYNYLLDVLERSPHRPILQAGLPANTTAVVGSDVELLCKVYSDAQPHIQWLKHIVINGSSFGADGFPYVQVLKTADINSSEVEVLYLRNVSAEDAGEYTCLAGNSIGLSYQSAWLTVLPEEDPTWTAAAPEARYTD

anti-mCherry nanobody (negative control) (VHH)
Kd [1]: 2180 nM | koff [2]: 0.00511 s⁻¹ | Kd [3]: 1960 nM | kon [4]: 2320 M⁻¹ s⁻¹ | kon [5]: 2600 M⁻¹ s⁻¹ | median fluorescence intensity (MFI) [6]: 200 MFI | koff [7]: 0.00505 s⁻¹
